# According to the RNAGym collection of RNA variant scans (doi:10.7554/elife.90254):
# B1: OR4K15 (parent)
# chain: GUUAACGGUCAUAGGCCAUGGAAACUAGGAGCACCAUUUCGCUGCCAGUGAAGAAAUGAACAAAGAAAAUCUGGGCCAGGCAGGCAUCAAAAGAAAUAGUCUUGCGCUCAACCAGAAAGUCUGUAAUCAUUUUAAGGGUA
# Variants of: B1
# Assay: self-cleavage, relative activity (ratio to wild type); higher = more cleavage; in vitro, sequencing; the parent is a self-cleaving ribozyme
row,Variant,self-cleavage
1,A62U A68G,1.4
2,A64U G79U,0.17
3,A66G A67G,1.22
4,A66U U100C,2.47
5,G65U,2
6,G65A,1.5
7,A67G A78U,0.33
8,A63C U139C,1.97
9,A66G A98G,0.38
10,G65A U108G,0.01
11,A63G A92G,1.66
12,A64G A90U,1.58
13,A64G A90G,1.13
14,A66G C81G,0.18
15,A64U U132C,1.49
16,A66G A90C,0.17
17,A66G A90U,1.31
18,A63G A116G,1.17
19,A67C A125G,0.85
20,A63G U72G,0.29
21,A66U U131C,0.84
22,A64U A82G,0.71
23,A64G U133G,1.05
24,A64G U133C,1.5

row,Variant,self-cleavage
1,A64G U133A,1.52
2,A64G U122A,0.95
3,A64G U122C,1.81
4,G65U A86G,0.19
5,A63G U87A,2.02
6,A63G U87C,1.59
7,A66G U72C,0.09
8,A63G A111G,0.02
9,A63G A111C,0.02
10,A62U U130C,0.84
11,A63U U108C,0.01
12,A66U A140G,2.51
13,A66G U100A,0.58
14,A66G U100C,2.05
15,A63U A91U,1.05
16,A63U A118U,1.02
17,A63U A68G,0.87
18,A64G C109U,0.36
19,A63G G83A,1.84
20,A64C G80A,0.2
21,A64G A67G,1.27
22,A66U A67G,0.98
23,A63G A86C,1.21
24,A63G A86G,1.47

row,Variant,self-cleavage
1,A63G G123A,2.17
2,A66G A114U,0.08
3,A62U A67C,1.64
4,A62U A67G,1.19
5,A64G G136U,2.02
6,A63U U131C,1.33
7,A63U U131A,2.65
8,A66G U131A,1.7
9,A64G U100C,1.22
10,A64G U100A,0.51
11,A62U U132A,2.19
12,A66G C105A,0.05
13,A62U A110G,0.14
14,A66G A125G,0.25
15,A66C A92G,1.21
16,A64G A134U,1.07
17,A63U A89C,1.22
18,A64C A96G,1.27
19,G65A U132G,0.82
20,G65A U132C,0.58
21,A63G U103A,0.88
22,A63G U103C,1.38
23,A64G U103A,0.55
24,G65A U124A,1.36

row,Variant,self-cleavage
1,A64U A95G,1.95
2,A62U A90G,1.26
3,G65A U130C,0.71
4,A64U A111G,0.04
5,A64G A117G,1.7
6,A66U A78G,0.3
7,A63G G79A,0.11
8,A62G U133C,1.14
9,A62G U133A,1.51
10,A64G A140G,1.47
11,A63G A68C,2.21
12,A63G A68G,1.41
13,A64U A89G,1.6
14,A64G C85U,0.98
15,A64U A86G,1.85
16,A62U A117G,1.64
17,A64G A111G,0.05
18,A64G A111U,0.1
19,A64U U120G,1.63
20,G65A A116G,0.45
21,A64U A126U,1.2
22,A64G U120A,2.01
23,A64G U120C,1.13
24,A66G U102A,0.89

row,Variant,self-cleavage
1,A66U U103C,0.48
2,A62U C85U,1.31
3,A66U C113A,0
4,A63U A90G,1.76
5,A66G A134G,1.66
6,A66G A134C,1.71
7,A66U A117G,1.44
8,A66G A95U,0.2
9,A66G A95C,1.5
10,A66G A95G,1.54
11,A63G A95G,2.26
12,A64U U70C,1.06
13,A66G A135U,1.08
14,A66U U72A,0.2
15,A67C A117G,2.74
16,A63G A82U,0.24
17,A63G A82G,0.74
18,A64U A78G,0.47
19,A66G U70C,0.75
20,A62U A94G,1.69
21,A66G A68C,1.13
22,A66G A68G,0.62
23,A63U U87A,1.18
24,A64U A69G,1.86

row,Variant,self-cleavage
1,A63G C88U,1.69
2,G65A A118G,1.57
3,G65A A126G,1.12
4,G65A A126U,0.76
5,A64G G106U,0.02
6,A64C U131C,1.9
7,A66G G73A,0.15
8,A62U G75A,0.06
9,A64U U108A,0.02
10,A67C A110G,0.37
11,A62U A82G,0.67
12,A64G C112U,0.01
13,A63G A118G,0.83
14,A63G A118U,0.84
15,G65C A89U,2.04
16,A66G U132C,0.6
17,A66G G137A,2.07
18,A66G G104C,0.01
19,A64G A91C,1.76
20,A64G A95G,1.12
21,A64G A95U,0.64
22,A66U U70A,0.62
23,A64U U131C,1.58
24,G65A A117G,0.36

row,Variant,self-cleavage
1,G65A A117U,0.6
2,A63U U97C,1.05
3,A64G A69U,1.58
4,A64G A69G,1.36
5,A63U A126G,1.31
6,A67G A89C,1.63
7,A67G A89U,1.53
8,A63G A91G,0.98
9,A64G A89C,0.64
10,A64G A89G,1.49
11,G65U G83U,0.44
12,A66U U120G,1.14
13,A63G U131G,1.99
14,A64G U108C,0.01
15,A64C A69U,2.61
16,A66U A89G,1.7
17,A66U A89C,0.99
18,G65C A111G,0.01
19,G65C A111U,0.07
20,A66G A110U,0.78
21,A63G U124C,1.17
22,A66C A95G,1.92
23,A66G G83U,0.61
24,A66G G83C,0.2

row,Variant,self-cleavage
1,A62U G93A,2.2
2,G65U A90G,0.96
3,A67C A96U,2.39
4,A62U A63U,1.75
5,A66G U130A,0.6
6,A63G A66C,0.27
7,A63G A66G,1.7
8,A64G A110G,0.22
9,A64G A110C,0.36
10,A63U U100A,0.96
11,A64G U102A,0.68
12,A62U A116G,1.13
13,A63C U132C,2.13
14,A62U A140G,0.67
15,A64G C105U,0.12
16,A63G U122C,1.16
17,A63G U122A,1.47
18,A66G U97A,2.11
19,A66G U97C,1.98
20,A64G U87C,0.87
21,A62U A118U,0.82
22,A66U A82U,0.24
23,A66U A82G,0.92
24,A64G A118G,0.89

row,Variant,self-cleavage
1,A64G A118U,0.97
2,A64G A126G,1.05
3,A63G C105U,0.05
4,A63U A96U,2.14
5,A62U A125G,0.71
6,A62U A66G,1.58
7,A62U U102C,1.91
8,A66G A92G,0.74
9,A63G U127A,1.47
10,A63G U127C,0.58
11,A66C A78G,0.32
12,A66G A86C,1.45
13,A66G A86G,1.16
14,A66U A94G,1.36
15,A62U U72C,0.19
16,A64U A134G,1.44
17,A66G G138A,1.26
18,A62G U130G,1.06
19,A63G A125G,0.64
20,A64G A135G,1.7
21,A66C U100C,1.6
22,A63G A114G,0.86
23,A63U G99U,1.03
24,G65A A110C,0.19

row,Variant,self-cleavage
1,A66U U108C,0.02
2,A64G A78U,0.4
3,A63U U70C,1.68
4,A66G A94G,1.55
5,A64U A91G,1.04
6,A64G A96U,0.91
7,A64G A96G,1.92
8,A64G U131C,1.2
9,A66G A91G,1.04
10,G65A A68G,1.57
11,A64G U70A,0.97
12,A62U G83A,1.98
13,A64G G137U,2.23
14,A64G A98G,0.59
15,A62U A92G,1.34
16,A62U A96G,1.69
17,A66G U87A,1.15
18,A66G U87C,0.77
19,A64G A86G,1.15
20,A64G A66C,1.17
21,A66U A111G,0.01
22,A64U A117U,1.07
23,A66G U133C,1.82
24,A64U G75A,0.1

row,Variant,self-cleavage
1,A64U U130C,1.12
2,A64U A67G,1.32
3,A67G A69C,1.68
4,A67G A69U,1.32
5,A63U A92G,1.88
6,G65U G138A,1.24
7,A64U A114U,0.02
8,A64U A114G,0.46
9,A63G U133C,1.18
10,A64U A135G,1.22
11,A62G U132C,1.59
12,A62G U132G,0.5
13,A66G A116U,0.7
14,A67C U87C,1.79
15,A63G A78G,0.31
16,A63G A78U,0.22
17,A62U U87C,1.57
18,A66U A135U,0.74
19,A66U A135G,1.83
20,A64G G138A,1.9
21,A63C A90G,1.79
22,A67G A90G,0.96
23,A67G A90U,1.13
24,A64C U103A,0.14

row,Variant,self-cleavage
1,A64C U103C,0.24
2,A63G A129G,0.9
3,A63G A129U,0.61
4,A64U A98U,1.98
5,A63G U100C,2.31
6,A66G C76A,0.23
7,G65A U72C,0.21
8,A64C A82U,0.26
9,A64U U100A,0.29
10,A64U U100C,2.38
11,A66G U120C,1.71
12,A66U A126G,1.05
13,A64G A92G,1.48
14,A66G U127A,2.35
15,A66U U122G,2.33
16,A63G C128U,1.95
17,A64U U72A,0.05
18,A63G U120C,1.27
19,A63G U120A,0.94
20,A64G A116U,0.19
21,A64G A68G,1.54
22,A64U A96C,1.28
23,A64C A68G,1.44
24,A67G A68U,1.13

row,Variant,self-cleavage
1,A63G A94G,1.98
2,A62U C88U,2.34
3,A63G U97A,1.94
4,A63U A98U,1.84
5,A66G A89U,1.97
6,A64U C113U,0.05
7,A63G G99U,1.14
8,A64G G84C,0.31
9,A62U A86G,1.88
10,A64U A92G,1.11
11,A66C,1.02
12,A66G,1.09
13,A66U,1.36
14,A66C U132C,1.6
15,A67G A82G,0.6
16,A67G A82C,0.13
17,A63C C81U,0.41
18,A63G G84A,1.86
19,A64U A68G,2.16
20,A62U A64U,1.06
21,A62U A64G,1.46
22,A64G U139C,1
23,A66G A129U,1.47
24,A67G A86G,1.22

row,Variant,self-cleavage
1,A66G A126G,1.07
2,A63G U108C,0.02
3,A63G U108A,0.01
4,A63G U108G,0.03
5,A66G A78G,0.31
6,A66G A111G,0.02
7,A64C U70C,1.18
8,A63G A67U,1.45
9,A63G A67G,1.6
10,A63G U139C,1.1
11,A66G A82U,0.29
12,G65A A140G,2.16
13,A64U A118G,1.42
14,A63U A69G,0.49
15,A62U A69G,0.81
16,A66C U127C,0.14
17,A64G U127A,2.12
18,A63U A86C,1.78
19,A64G C121G,2.89
20,A63U U103A,0.49
21,A64G A82G,0.35
22,A62U A111U,0.07
